Article PMC2602770
Substitutions are numbered along the chain they refer to.

T1: GST-AtGRP8 (WT) (Arabidopsis thaliana, UniProt Q03251 1-169)
T1 sequence: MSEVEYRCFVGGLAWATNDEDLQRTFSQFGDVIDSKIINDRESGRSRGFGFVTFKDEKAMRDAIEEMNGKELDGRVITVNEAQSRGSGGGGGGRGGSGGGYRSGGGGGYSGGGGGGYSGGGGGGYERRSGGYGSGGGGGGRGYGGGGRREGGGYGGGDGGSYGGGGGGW

T2: GST-AtGRP8-RQ (Arabidopsis thaliana, UniProt Q03251 1-169, R47Q)
T2 sequence: T1 sequence with R47Q


Tests used:
GST-AtGRP8 (WT) [1] = target: T1, GST-AtGRP8 (WT); assay: EMSA
GST-AtGRP8-RQ = target: T2, GST-AtGRP8-RQ; assay: EMSA
GST-AtGRP8 (WT) [2] = target: T1, GST-AtGRP8 (WT); assay: competition
GST-AtGRP8 (WT) [3] = target: T1, GST-AtGRP8 (WT); assay: EMSA; remark: listed apart in the source

Binder | Kd (GST-AtGRP8 (WT) [1]) | Kd (GST-AtGRP8-RQ) | binding result (GST-AtGRP8 (WT) [2]) | binding signal (GST-AtGRP8 (WT) [3])
GUUUUUGGUUUAGAUUUGGUUUUGUGU (ssRNA) [8-UTR_WT] | 205 nM | 1.31 µM |  | 
GUUCAAUUUUAUUAAAUUAUUUUACUGAUCUG (ssRNA) [7-intron_G6mut] |  |  | no binding | 
AUUUUGUUCUGGUUCUGCUUUAGAUUUGAUCU (ssRNA) [7-UTR_WT] | 318 nM | 3.22 µM |  | 
CUUCCACGAUUGUUUUUGCUGAUGUGU (ssRNA) [8-intron_WT] | 1640 nM | 22.9 µM |  | 
GUUCAGUUUUGUUGGAUUGUUUUGCUGAUCUG (ssRNA) [7-intron_WT] | 426 nM | 3.59 µM |  | 
CGUUUGGUUUACUUUUUUGAUGAAACA (ssRNA) [8-UTR_938] |  |  |  | ~10 fold lower affinity than 8-UTR_WT
